Reference: publication PMC11849118

Target: T1, CFP-tagged hABHD5 (Human ABHD5-ECFP) (human), Q8WTS1
T1 chain: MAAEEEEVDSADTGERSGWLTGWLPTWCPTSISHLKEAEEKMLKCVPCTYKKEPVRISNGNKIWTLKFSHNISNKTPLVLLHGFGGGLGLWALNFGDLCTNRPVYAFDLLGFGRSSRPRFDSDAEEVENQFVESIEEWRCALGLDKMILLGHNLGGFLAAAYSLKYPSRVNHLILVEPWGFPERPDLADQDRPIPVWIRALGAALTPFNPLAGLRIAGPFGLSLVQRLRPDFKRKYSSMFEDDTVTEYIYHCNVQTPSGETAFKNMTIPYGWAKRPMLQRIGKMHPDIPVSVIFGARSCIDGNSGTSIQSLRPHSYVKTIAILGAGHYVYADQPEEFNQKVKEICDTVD
Experiment: fluorescence cross-correlation spectroscopy (FCCS); live cell dual color FCCS in transfected cells loaded with oleic acid overnight; excitation focused into the center of the cytoplasm; Fc = fraction of diffusers that are multicolored clusters
Settings: remark: other sources report otherwise

B1: WT hPNPLA3-EYFP, Q9NST1 1-481 (natural protein)
chain: MYDAERGWSLSFAGCGFLGFYHVGATRCLSEHAPHLLRDARMLFGASAGALHCVGVLSGIPLEQTLQVLSDLVRKARSRNIGIFHPSFNLSKFLRQGLCKCLPANVHQLISGKIGISLTRVSDGENVLVSDFRSKDEVVDALVCSCFIPFYSGLIPPSFRGVRYVDGGVSDNVPFIDAKTTITVSPFYGEYDICPKVKSTNFLHVDITKLSLRLCTGNLYLLSRAFVPPDLKVLGEICLRGYLDAFRFLEEKGICNRPQPGLKSSSEGMDPEVAMPSWANMSLDSSPESAALAVRLEGDELLDHLRLSILPWDESILDTLSPRLATALSEEMKDKGGYMSKICNLLPIRIMSYVMLPCTLPVESAIAIVQRLVTWLPDMPDDVLWLQWVTSQVFTRVLMCLLPASRSQMPVSSQQASPCTPEQDWPCWTPCSPKGCPAETKAEATPRSILRSSLNFFLGNKVPAGAEGLSTFPSFSLEKSL
For B1, the Fc (fraction of diffusers that are multicolored clusters of ABHD5 and PNPLA3) was 0.32, the percent of ABHD5 codiffusing with PNPLA3 was 24% and the percent of PNPLA3 codiffusing with ABHD5 was 78%.
